Source: patent US20210077575A1, “NANOPARTICLES FOR THE TARGETED DELIVERY OF THERAPEUTIC POLYPEPTIDES” (Cedars-Sinai Medical Center, priority 2018, published 2021)

Assay: Nanoparticle size by dynamic light scattering (Example 2)
Format: physicochemical
Settings: distribution by number; FIG. 2D-F, GeloninD10 series
Description: The composition comprising the HerPBK10-GFPD10 nanoparticles and the composition comprising the HerPBK10-GeloninD10 were then subjected to dynamic light scattering (DLS) to determine the diameter of the resulting nanoparticles. Solutions of GFPD10 (no HerPBK10), GeloninD10 (no HerPBK10) and HerPBK10 (no GFPD10 or GeloninD10) were also measured by DLS.

B1: GeloninD10: cytotoxic polypeptide gelonin with a C-terminal deca-aspartic acid tag (protein)
chain: GLDTVSFSTKGATYITYVNFLNELRVKLKPEGNSHGIPLLRKKCDDPGKCFVLVALSNDNGQLAEIAIDVTSVYVVGYQVRNRSYFFKDAPDAAYEGLFKNTIKTRLHFGGSYPSLEGEKAYRETTDLGIEPLRIGIKKLDENAIDNYKPTEIASSLLVVIQMVSEAARFTFIENQIRNNFQQRIRPANNTISLENKWGKLSFQIRTSGANGMFSEAVELERANGKKYYVTAVDQVKPKIALLKFVDKDPKDDDDDDDDDD
diameter / measured size (DLS): about 2.9 nm
